Our source for the Km and kcat values is PMC5784979, “Direct comparison of the four aldehyde oxidase enzymes present in mouse gives insight into their substrate specificities” (PLoS ONE, 2018).

Common to all, as to assay: purified protein
Holding throughout (conditions): 100 μM DCPIP as electron acceptor, 50 mM Tris-HCl, 1 mM EDTA, pH 8.0, 37°C, corrected to 100% Mo saturation

Substrate in series [1]: c1ccc2c(c1)cnc1ccccc12
Substrate in series [2]: CC=O
Format: biochemical, Mus musculus.

Substrate in series [3]: COc1ccccc1C=O
Format: biochemical, Mus musculus.

Substrate in series [4]: c1ncc2[nH]cnc2n1
Format: biochemical, Mus musculus.

B1: mAOX1 (Mus musculus) (protein)
chain: MDPIQLLFYVNGQKVVEKNVDPEMMLLPYLRKNLRLTGTKYGCGGGGCGACTVMISRYNPSTKAIRHHPVNACLTPICSLHGTAVTTVEGLGNTRTRLHPIQERIAKCHGTQCGFCTPGMVMSMYALLRNHPEPTLDQLTDALGGNLCRCTGYRPIIDACKTFCKASACCQSKENGVCCLDQEINGLAESQEEDKTSPELFSEEEFLPLDPTQELIFPPELMRIAEKQPPKTRVFYGERVTWISPVTLKELVEAKFKYPQAPIVMGYTSVGPEVKFKGVFHPIIISPDRIEELGVISQARDGLTLGAGLSLDQVKDILADIVQKLPEEKTQTYRALLKHLRTLAGSQIRNMASLGGHIVSRHLDSDLNPLLAVGNCTLNLLSKDGERRIPLSEEFLRKCPEADLKPQEVLVSVNIPWSRKWEFVSAFRQAQRQQNALAIVNSGMRVLFREGGGVIEELSILYGGVGSTIISAKNSCQRLIGRPWNEGMLDTRCRLVLDEVTLAASAPGGKVEFKRTLIISFLFKFYLEVSQGLKREDPGHSPSLAGNHESALDDLHSKHPWRTLTHQNVDPAQLPQDPIGRPIMHLSGIKHATGEAIYCDDMPAVDRELFLTFVTSSRAHAKIVSIDLSEALSLPGVVDIITADHLQEANTFGTETFLATDEVHCVGHLVCAVIADSETRAKQAAKQVKVVYQDLAPLILTIEEAIQHKSFFKSERKLECGNVDEAFKIVDQILEGEIHIGGQEHFYMETQSMLVVPKGEDGEIDIYVSTQFPKYIQDIVAATLKLSANKVMCHVRRVGGAFGGKVGKTSILAAITAFAASKHGRAVRCILERGEDMLITGGRHPYLGKYKAGFMNEGRILALDVEHYCNGGCSLDESLWVIEMGLLKLDNAYKFPNLRCRGWACRTNLPSNTALRGFGFPQAGLVTEACITEVAIKCGLSPEQVRTINMYKHVDTTHYKQEFSAKALSECWRECMAKCSYFERKAAIGKFNAENSWKKRGMAVIPLKFPVGIGSVAMGQAAALVHIYLDGSALVSHGGIEMGQGVHTKMIQVVSRELRMPMSSVHLRGTSTETVPNTNASGGSVVADLNGLAVKDACQTLLKRLEPIISKNPQGTWKDWAQTAFDQSISLSAVGYFRGYESNIDWEKGEGHPFEYFVFGAACSEVEINCLTGDHKNIRTNIVMDVGHSINPALDIGQVEGAFIQGMGLYTIEELSYSPQGTLYSRGPNQYKIPAICDIPTEMHISFLPPSEHSNTLYSSKGLGESGVFLGCSVFFAIHDAVKAARQERGISGPWKLNSPLTPEKIRMACEDKFTKMIPRDEPGSYVPCNIPV
notes: recombinant from E. coli TP1000 (codon-optimized plasmid pMAOX1co), Ni-NTA and Superdex 200 purified, chemically sulfurated, dimer (300 kDa)
The term Km denotes the substrate concentration at which the rate is half of its maximum. A word on the kcat: it is the maximal rate divided by the concentration of active sites. On to B1, for which the Km in series [1] stood at 0.0025 ± 0.0011 mM; in series [2], 18 mM; in series [3], 0.0066 ± 0.0015 mM; in series [4], 9.028 ± 0.971 mM. Also, the kcat in series [1] came out at 2.013 ± 0.277 s⁻¹; in series [3], 6.885 ± 0.362 s⁻¹; in series [4] it was 7.147 ± 0.29 s⁻¹.
